# How the values were obtained:
# Format in all cases: biochemical
# [1] = Screening of protease for hemoglobin A1c determination (pH 7.5); settings: pH 7.5, 37° C. 60 minutes; 550 nm, reference 595 nm; FOD923 developing solution
# Description: (§1) A screening method is shown in which a protease that cleaves a glycated peptide from N-terminal-glycated pentapeptide of a hemoglobin β-chain without substantially cleaving a glycated amino acid or glycated peptide from N-terminal-glycated pentapeptide of a hemoglobin α-chain. Each 10 μl of a sample for screening was placed in 3 wells of a 96-well plate, respectively. Then, the first well was supplemented with 50 μl of an α-solution, the second well was supplemented with 50 μl of a β-solution, and the third well was supplemented with 50 μl of a control solution. After the plate was incubated at 37° C. for 60 minutes, 50 μl of distilled water and 50 μl of a developing solution were added, and the whole was left at room temperature for 30 minutes. Then, the absorbance at a measuring wavelength of 550 nm and a reference wavelength of 595 nm were determined using a Microplate Reader (model 550, manufactured by Bio-Rad), to select a sample having a difference in the absorbance between the β-solution-supplemented well and the control solution-supplemented well larger than a difference in the absorbance between the α-solution-supplemented well and the control solution-supplemented well. Thus the protease of object was screened. The samples to be used include: carboxypeptidase B (manufactured by Sigma-Aldrich Corp.); carboxypeptidase W (manufactured by Wako Pure Chemical Industries, Ltd.); carboxypeptidase Y (manufactured by Oriental Yeast Co., Ltd.); protease (type XXVII nagase: manufactured by Sigma-Aldrich Corp.); protease (type VIII Subtilisin Carlsberg: manufactured by Sigma-Aldrich Corp.); protease (type XXIV Bacterial: manufactured by Sigma-Aldrich Corp.); Proteinase K (manufactured by Wako Pure Chemical Industries, Ltd.); neutral proteinase (manufactured by Toyobo Co., Ltd.); carboxypeptidase A (manufactured by Wako Pure Chemical Industries, Ltd.); thermolysin (manufactured by Wako Pure Chemical Industries, Ltd.); and distilled water. To confirm a degree of color development caused by a developing solution, 10 μl of 1 mM FVH (manufactured by Peptide Institute Inc.) and 1 mM FVL (manufactured by Peptide Institute Inc.) were placed in a well severally, followed by adding 50 μl of the control solution. The whole was incubated at 37° C. for 60 minutes. Then, 50 μl of distilled water and 50 μl of the developing solution were added and the whole was left at room temperature for 30 minutes, followed by the determination in a similar manner as described above.
# (§2) 0.2 mM β-Glycated pentapeptide (manufactured by Peptide Institute Inc.)
# (§3) 0.09% 4-Aminoantipyrine (manufactured by Wako Pure Chemical Industries, Ltd.)
# (§4) 0.06% TODB (manufactured by Dojindo Laboratories)
# (§5) 15 U/ml Peroxidase (manufactured by Sigma-Aldrich Corp.)
# (§6) Various bacteria were cultured with shaking in Difco Lactobacilli MRS Broth (manufactured by Becton, Dickinson and Company), a MM medium (2.5% mannose, 2.5% beer yeast extract, pH7.0), and a YPG medium (2% glucose, 1% polypeptone, 2% yeast extract, 0.1% potassium dihydrogen phosphate, 0.05% magnesium sulfate heptahydrate, pH 7.0) at a temperature of from 28 to 30° C. for 1 to 7 days. Then, cells were removed by centrifugation from the culture solutions to obtain culture supernatants. A sample was prepared by diluting the obtained culture supernatants 10-fold with a 10 mM potassium phosphate buffer (pH7.5), and the determination was performed in a similar manner as Example 1.
# [2] = Screening of protease for hemoglobin A1c determination (pH 3.5); settings: pH 3.5, 37° C. 60 minutes; 550 nm, reference 595 nm; FOD923 developing solution
# Description: (§7) A screening method is shown in which a protease that cleaves a glycated peptide from N-terminal-glycated pentapeptide of a hemoglobin β-chain without substantially cleaving a glycated amino acid or glycated peptide from N-terminal-glycated pentapeptide of a hemoglobin α-chain. Each 10 μl of a sample for screening was placed in 3 wells of a 96-well plate, respectively. Then, the first well was supplemented with 50 μl of an α-solution, the second well was supplemented with 50 μl of a β-solution, and the third well was supplemented with 50 μl of a control solution. After the plate was incubated at 37° C. for 60 minutes, 50 μl of pH-regulating solution and 50 μl of a developing solution were added, and the whole was left at room temperature for 30 minutes. Then, the absorbance at a measuring wavelength of 550 nm and a reference wavelength of 595 nm were determined using a Microplate Reader (model 550, manufactured by Bio-Rad), to select a sample having a difference in the absorbance between the β-solution-supplemented well and the control solution-supplemented well larger than a difference in the absorbance between the α-solution-supplemented well and the control solution-supplemented well. Thus the protease of object was screened. The samples to be used include: carboxypeptidase B (manufactured by Sigma-Aldrich Corp.); carboxypeptidase W (manufactured by Wako Pure Chemical Industries, Ltd.); carboxypeptidase Y (manufactured by Oriental Yeast Co., Ltd.); protease (type XXVII nagase: manufactured by Sigma-Aldrich Corp.); protease (type VIII Subtilisin Carlsberg: manufactured by Sigma-Aldrich Corp.); protease (type XXIV Bacterial: manufactured by Sigma-Aldrich Corp.); Proteinase K (manufactured by Wako Pure Chemical Industries, Ltd.); neutral proteinase (manufactured by Toyobo Co., Ltd.); and distilled water. To confirm a degree of color development caused by a developing solution, 10 μl of 1 mM FVH (manufactured by Peptide Institute Inc.) and 1 mM FVL (manufactured by Peptide Institute Inc.) were placed in a well severally, followed by adding 50 μl of the control solution. The whole was incubated at 37° C. for 60 minutes. Then, 50 μl of a pH-regulating solution and 50 μl of the developing solution were added and the whole was left at room temperature for 30 minutes, followed by the determination in a similar manner as described above.
# (§8) 50 mM Acetate-sodium acetate (pH3.5)
# (§9) 0.2 mM α-Glycated pentapeptide (manufactured by Peptide Institute Inc.)
# (§10) 0.09% 4-aminoantipyrine (manufactured by Wako Pure Chemical Industries, Ltd.)
# as §4, §5
# [3] = Screening of protease (pH 3.5), control solution without substrate; settings: pH 3.5, no substrate; 550 nm, reference 595 nm
# Description: as §7, §8, §10, §4, §5
# [4] = Screening of protease (pH 7.5), control solution without substrate; settings: pH 7.5, no substrate; 550 nm, reference 595 nm
# Description: as §1, §3, §4, §5, §6
# [5] = Screening of protease for hemoglobin A1c determination (pH 3.5); settings: pH 3.5, 37° C. 60 minutes; 550 nm, reference 595 nm; FOD923 developing solution; remark: listed apart in the source
# Description: as §7, §8, §2, §10, §4, §5
# [6] = Screening of protease for hemoglobin A1c determination (pH 7.5); settings: pH 7.5, 37° C. 60 minutes; 550 nm, reference 595 nm; FOD923 developing solution; remark: listed apart in the source
# Description: as §1, §9, §3, §4, §5, §6
molecule,measurement,setting,value
"protease type XXVII: protease (type XXVII nagase: manufactured by Sigma-Aldrich Corp.) (protein, UniProt P00782 108-382, looked up) Subtilisin BPN': AQSVPYGVSQIKAPALHSQGYTGSNVKVAVIDSGIDSSHPDLKVAGGASMVPSETNPFQDNNSHGTHVAGTVAALNNSIGVLGVAPSASLYAVKVLGADGSGQYSWIINGIEWAIANNMDVINMSLGGPSGSAALKAAVDKAVASGVVVVAAAGNEGTSGSSSTVGYPGKYPSVIAVGAVDSSNQRASFSSVGPELDVMAPGVSIQSTLPGNKYGAYNGTSMASPHVAGAAALILSKHPNWTNTQVRSSLENTTTKLGDSFYYGKGLINVQAAAQ","β-Solution (absorbance, RAW DATA)",[1],0.031
same,"α-Solution (absorbance, RAW DATA)",[2],0.025
same,"control solution (absorbance, RAW DATA)",[3],0.019
same,"control solution (absorbance, RAW DATA)",[4],0.016
same,"β-Solution (absorbance, RAW DATA)",[5],0.021
same,"α-Solution (absorbance, RAW DATA)",[6],0.021

# Source: patent US7943337B2, “Method for screening a protease” (Asahi Kasei Pharma Corporation, priority 2003, dated 2011)
